{"source": "patent US20190338011A1", "key": {"[1]": {"molecular_target": "human MIC-A (expressed on P815 mastocytoma cells) (human) (UniProt Q29983)", "sequence (Q29983 24-383)": "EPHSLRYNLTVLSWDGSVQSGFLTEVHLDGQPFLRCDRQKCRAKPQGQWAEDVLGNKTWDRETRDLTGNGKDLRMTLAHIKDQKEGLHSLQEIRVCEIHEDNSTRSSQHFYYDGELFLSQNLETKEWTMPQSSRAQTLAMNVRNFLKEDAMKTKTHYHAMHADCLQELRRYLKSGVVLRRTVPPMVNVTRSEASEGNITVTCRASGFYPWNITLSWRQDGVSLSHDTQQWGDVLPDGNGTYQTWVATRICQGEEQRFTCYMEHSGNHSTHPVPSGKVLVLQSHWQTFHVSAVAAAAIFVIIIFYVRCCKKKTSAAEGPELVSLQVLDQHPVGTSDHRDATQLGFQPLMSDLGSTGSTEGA", "test": "cell-based or functional assay"}, "[2]": {"molecular_target": "human NKG2D ligand on human tumor cell lines (Jurkat, RPMI8866, K562, Daubi, U937, ECC-1)", "test": "cell-based or functional assay"}}}
{"substance": "human chimeric NKG2D (human CD3ζ attached to the N-terminus of human NKG2D) (receptor)", "values": [{"measurement": "Specific Lysis (%) of P815/MIC-A, Effector:Target Ratio 1", "setting": "[1]", "result": 5.4, "unit": "%"}, {"measurement": "Specific Lysis (%) of P815/MIC-A, Effector:Target Ratio 5", "setting": "[1]", "result": 17.3, "unit": "%"}, {"measurement": "Specific Lysis (%) of P815/MIC-A, Effector:Target Ratio 25", "setting": "[1]", "result": 35.4, "unit": "%"}, {"measurement": "Specific Lysis (%) of K562, Effector:Target Ratio 1, with control antibody", "setting": "[2]", "result": 3.1, "unit": "%"}, {"measurement": "Specific Lysis (%) of K562, Effector:Target Ratio 5, with control antibody", "setting": "[2]", "result": 17.6, "unit": "%"}, {"measurement": "Specific Lysis (%) of K562, Effector:Target Ratio 25, with control antibody", "setting": "[2]", "result": 53.8, "unit": "%"}, {"measurement": "Specific Lysis (%) of RPMI8866, Effector:Target Ratio 1, with control antibody", "setting": "[2]", "result": 9.3, "unit": "%"}, {"measurement": "Specific Lysis (%) of RPMI8866, Effector:Target Ratio 5, with control antibody", "setting": "[2]", "result": 27.4, "unit": "%"}, {"measurement": "Specific Lysis (%) of RPMI8866, Effector:Target Ratio 25, with control antibody", "setting": "[2]", "result": 41.6, "unit": "%"}]}
